Positions of bridges follow the written chain, without caps; N, C: chain ends. Non-standard residues stand in square brackets, D forms with d. No end group written: not given here. COCH2 = acetyl group that carries the bridge; NMeL = CN[C@@H](CC(C)C)C(=O)O; hLeu = CC(C)CC[C@H](N)C(=O)O; hCys = N[C@@H](CCS)C(=O)O; Orn = NCCC[C@H](N)C(=O)O
Columns and labels:
[1] = Reductive stability of cyclic peptide (DTT treatment, LC); assay type: physicochemical; settings: residual rate after DTT treatment, room temperature, 1 hour
Procedure: The molecular stability of the cyclic peptide was evaluated by analyzing an aqueous solution of the cyclic peptide treated with a reducing agent by liquid chromatography (LC).
The reducing agent treatment was performed under the following conditions based on the concentration of glutathione contained in the cells. 25 μL of a 0.2 mg/mL cyclic peptide aqueous solution was prepared, 58.8 μL of a 12.6 mmol/L DTT aqueous solution was added to the aqueous solution, and the mixture was incubated at room temperature for 1 hour to obtain an aqueous solution of the cyclic peptide treated with a reducing agent. The DTT aqueous solution was used by diluting a 1 mol/L (+−)-dithiothreitol (DTT) solution (FUJIFILM Wako Pure Chemical Corporation, 044-33871) with water. The total area of all the peaks in LC/MS of the cyclic peptide before the reducing agent treatment was set to 100%, and the proportion of the total area of all the peaks in LC/MS of the aqueous solution of the cyclic peptide treated with the reducing agent was determined to calculate the residual rate of the cyclic peptide, and the molecular stability was evaluated according to the following evaluation criteria. The evaluation result preferably satisfies the evaluation criteria A, B, or C.
• A: The residual rate of cyclic peptide is 90% or more. • B: The residual rate of the cyclic peptide is 70% or more and less than 90% • C: The residual rate of the cyclic peptide is 50% or more and less than 70% • D: The residual rate of the cyclic peptide is less than 50%
The LC used for the evaluation of molecular stability was set to the following conditions. • LC device: Prominence series (pump, column oven, autosampler, detector) (manufactured by Shimadzu Corporation) • Detector: photodiode array detector (SPD-M20A), measurement wavelength of 280 nm • Column: TSKgel ODS-100V, inner diameter of 4.6 mm×length of 150 mm, particle diameter of 5 μm (manufactured by Tosoh Corporation) • Eluent A: solution containing 0.1% trifluoroacetic acid as solute, and solvent is 100% water • Eluent B: solution containing 0.1% trifluoroacetic acid as solute, and solvent is 100% acetonitrile • Flow rate: 1.0 mL/min • Injection amount: 25 μL • Gradient: 20% to 50%: Eluent B (0 to 15 minutes), 100%: Eluent B (15 minutes) • Column temperature: 40° C.

[2] = molecular target: T1, Recombinant Human FGFR1 alpha (IIIc) Fc Chimera Protein (Homo sapiens, UniProt P11362); experiment: SPR binding affinity of chemically synthesized cyclic peptide to immobilized FGFR; settings: SPR binding amount at 10 nmol/L cyclic peptide, 25° C.; chemically synthesized product
T1 construct: purchased R&D systems 658-FR-050
Procedure: The binding affinity of the cyclic peptide to FGFR was evaluated using a surface plasmon resonance (SPR) method.
The binding affinity of the chemically synthesized cyclic peptide to FGFR was evaluated by the following procedure.
A CM5 sensor chip (Cytiva, 29149603) was set in Biacore-T200 (manufactured by Cytiva) which is a surface plasmon resonance device, and an HBS-EP buffer (Cytiva, BR100826) was added as a running buffer at a flow rate of 10 μL/min to equilibrate the flow channel. Next, 70 μL of a mixed aqueous solution of 0.2 mol/L 1-(3-dimethylaminopropyl)-3-ethylcarbodiimide (EDC) and 0.05 mol/L N-hydroxysuccinimide (NHS) was added to activate the sensor chip. Then, Recombinant Human FGFR1 alpha (IIIc) Fc Chimera Protein CF (R&D systems, 658-FR-050) prepared at 50 nmol/L in an Acetate 4.5 buffer (Cytiva, BR100350) was added thereto to perform immobilization at about 5000 RU. Thereafter, the blocking treatment was performed with an ethanolamine solution. In addition, in another flow channel of the same sensor chip, blocking treatment was performed immediately after activation without immobilizing FGFR.
A cyclic peptide diluted to 10 nmol/L using HBS-EP was added to each flow channel of the FGFR-immobilized sensor chip produced above at 25° C. for 10 minutes, then HBS-EP was allowed to flow as a running buffer for 30 minutes, and the binding of the cyclic peptide to FGFR was measured. Thereafter, a regeneration treatment of removing the bound cyclic peptide was performed by repeating the flow of a regeneration liquid in which sodium chloride powder was dissolved in Glysine 1.5 (Cytiva, BR100354) to a final concentration of 0.15 mol/L for 1 minute in each flow channel twice. The binding amount of the cyclic peptide was evaluated from the difference between the measured value of Biacore-T200 in the flow channel in which FGFR was immobilized and the measured value of Biacore-T200 in the flow channel in which FGFR was not immobilised, in a case where a 10 nmol/L cyclic peptide was allowed to flow.
The binding amount of the cyclic peptide evaluated above was normalized to the binding amount of the cyclic peptide molecules per one molecule of FGFR using the molecular weights of the cyclic peptide and FGFR, and the binding affinity to FGFR was evaluated according to the following evaluation criteria. The evaluation result preferably satisfies the evaluation criteria A, B, or C.
• A: The binding amount is 0.7 molecules of the cyclic peptide/one molecule of FGFR or more. • B: The binding amount is 0.5 molecules of the cyclic peptide/one molecule of FGFR or more and less than 0.7 molecules of cyclic peptide/one molecule of FGFR. • C: The binding amount is 0.1 molecules of cyclic peptide/one molecule of FGFR or more and less than 0.5 molecules of cyclic peptide/one molecule of FGFR. • D: The binding amount is less than 0.1 molecules of the cyclic peptide/one molecule of FGFR.

[3] = Alkali treatment stability of cyclic peptide (LC); assay type: physicochemical; settings: 0.5 mol/L sodium hydroxide aqueous solution added, room temperature, 3 hours
Procedure: In addition, the stability of the cyclic peptide (SEQ ID NO: 335) containing a cysteine residue in the cyclized portion and the cyclic peptide (SEQ ID NO: 327) containing a homocysteine residue in the cyclized portion was compared under the following alkali treatment, which is a more severe condition.
The alkali treatment was performed by the following method. 25 μL of a 0.2 mg/mL cyclic peptide aqueous solution was prepared, 58.8 μL of a 0.5 mol/L sodium hydroxide aqueous solution was added to the aqueous solution, and the mixture was incubated at room temperature for 3 hours to obtain an aqueous solution of the cyclic peptide alkali-treated. The total area of all the peaks in LC/MS of the cyclic peptide before the alkali treatment was set to 100%, and the proportion of the total area of all the peaks in LC/MS of the aqueous solution of the cyclic peptide alkali-treated was determined to calculate the residual rate of the cyclic peptide.
The LC conditions used for the evaluation of molecular stability are the same as those in the measurement of the above-described cyclic peptide treated with a reducing agent.

[4] = test system: hMSC-Human Mesenchymal Stem Cells; experiment: Effect of maintaining MSC undifferentiated potency (gene expression); assay type: cell-based
Procedure: The effect of maintaining mesenchymal stem cell (MSC) undifferentiated potency of the cyclic peptide complex was evaluated.
MSC was prepared in the same manner as in Example 7.
The evaluation of the effect of maintaining the MSC undifferentiated potency was performed by the following method. First, a culture medium (hereinafter, referred to as a custom culture medium) in which bFGF was removed from PRIME-XV MSC Expansion XSFM (FUJIFILM Irvine Scientific, Inc., 91149) was prepared. Next, Prime-XV Human Fibronectin (FUJIFILM Irvine Scientific, Inc., 31002) was dissolved in PBS (Fujifilm Wako Pure Chemical Corporation, 164-23551), 2 μg/cm^2 of the solution was added to a 12-well plate used for proliferation, and the 12-well plate was allowed to stand at room temperature for 3 hours to coat the 12-well plate with fibronectin. Thereafter, the MSCs subjected to the subculture were peeled using Tryple Express (Thermo, 12604-013), washed once with a custom culture medium, suspended in a custom culture medium in which a cyclic peptide complex or bFGF (R&D Systems, 3718-GMP) was diluted to final concentrations of 10 nmol/L and 1 nmol/L, and seeded on a 12-well plate coated with fibronectin. In this case, conditions in which the cyclic peptide complex and bFGF were not added as a negative control were prepared. After culturing at 37° C. (5% CO2) for 2 nights, the culture medium was replaced by removing the supernatant of the culture medium and adding the same amount of a culture medium prepared to have the same composition as the removed culture medium. After further culturing at 37° C. (5% CO2) for 2 nights, RNA was extracted using an RNeasy Plus Mini Kit (Qiagen, 74136) according to the manufacturer's protocol. […] The expression level of each gene was normalized by setting the expression level of the well to which 1 nmol/L bFGF was added to 1.

[5] = 1 nmol/L bFGF versus negative control

T1 sequence (P11362 with tags, fused parts or gaps limits assumed): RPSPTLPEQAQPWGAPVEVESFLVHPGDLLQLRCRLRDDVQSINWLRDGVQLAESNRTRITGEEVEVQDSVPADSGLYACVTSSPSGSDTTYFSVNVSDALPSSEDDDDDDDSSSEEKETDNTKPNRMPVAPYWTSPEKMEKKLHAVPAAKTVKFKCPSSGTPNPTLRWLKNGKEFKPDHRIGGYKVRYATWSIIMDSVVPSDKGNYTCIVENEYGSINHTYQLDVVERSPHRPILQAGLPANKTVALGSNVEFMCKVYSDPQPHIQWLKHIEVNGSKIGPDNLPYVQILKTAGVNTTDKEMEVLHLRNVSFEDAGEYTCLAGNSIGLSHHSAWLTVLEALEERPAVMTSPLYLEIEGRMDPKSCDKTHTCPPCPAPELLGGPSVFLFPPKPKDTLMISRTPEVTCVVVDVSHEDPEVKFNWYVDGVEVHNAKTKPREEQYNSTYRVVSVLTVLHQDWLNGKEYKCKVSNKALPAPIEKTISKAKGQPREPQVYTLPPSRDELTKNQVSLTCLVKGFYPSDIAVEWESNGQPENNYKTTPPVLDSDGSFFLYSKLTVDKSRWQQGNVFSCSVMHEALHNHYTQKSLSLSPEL

337 (F[Orn](COCH2)VYTFDAHAHSLDAALN[hCys]IKKK; thioether 2-19) [compound 337]
Evaluation result of reductive stability [1]: B (The residual rate of the cyclic peptide is 70% or more and less than 90%)
Evaluation result of binding affinity to FGFR [2]: C (The binding amount is 0.1 molecules of cyclic peptide/one molecule of FGFR or more and less than 0.5 molecules of cyclic peptide/one molecule of FGFR.)

338 (FXVYTFDAHAHSLDAALNXIKKK; Description of Artificial Sequence: Cyclic peptide) [compound 338]
Evaluation result of reductive stability [1]: A (The residual rate of cyclic peptide is 90% or more.)
Evaluation result of binding affinity to FGFR [2]: C (The binding amount is 0.1 molecules of cyclic peptide/one molecule of FGFR or more and less than 0.5 molecules of cyclic peptide/one molecule of FGFR.)

339 (F[Orn](COCH2)VYTFDAHAHS[NMeL]DAALN[hCys]IKKK; thioether 2-19) [compound 339]
Evaluation result of reductive stability [1]: B (The residual rate of the cyclic peptide is 70% or more and less than 90%)
Evaluation result of binding affinity to FGFR [2]: C (The binding amount is 0.1 molecules of cyclic peptide/one molecule of FGFR or more and less than 0.5 molecules of cyclic peptide/one molecule of FGFR.)

340 (F[Orn](COCH2)VYTFDAHAHS[hLeu]DAALN[hCys]IKKK; thioether 2-19) [compound 340]
Evaluation result of reductive stability [1]: B (The residual rate of the cyclic peptide is 70% or more and less than 90%)
Evaluation result of binding affinity to FGFR [2]: B (The binding amount is 0.5 molecules of the cyclic peptide/one molecule of FGFR or more and less than 0.7 molecules of cyclic peptide/one molecule of FGFR.)

341 ([Orn](COCH2)VYTFDAHAHSLDAALN[hCys]IKKK; thioether 1-18) [compound 341]
Evaluation result of reductive stability [1]: B (The residual rate of the cyclic peptide is 70% or more and less than 90%)
Evaluation result of binding affinity to FGFR [2]: C (The binding amount is 0.1 molecules of cyclic peptide/one molecule of FGFR or more and less than 0.5 molecules of cyclic peptide/one molecule of FGFR.)

342 (F[Orn](COCH2)VYTFDAHAHSLDAALN[hCys]KKK; thioether 2-19) [compound 342]
Evaluation result of reductive stability [1]: B (The residual rate of the cyclic peptide is 70% or more and less than 90%)
Evaluation result of binding affinity to FGFR [2]: C (The binding amount is 0.1 molecules of cyclic peptide/one molecule of FGFR or more and less than 0.5 molecules of cyclic peptide/one molecule of FGFR.)

A-(C)-VWTFDRHAQEISQALH-(K(acetyl))-VKKK (ACVWTFDRHAQEISQALHK(COCH2)VKKK; thioether 2-19 (inferred)) [SEQ ID NO: 335]
residual rate of the cyclic peptide [3]: 15%

A-(Hcy)-VWTFDRHAQEISQALH-(K(acetyl))-VKKK (A[hCys]VWTFDRHAQEISQALHK(COCH2)VKKK; thioether 2-19) [SEQ ID NO: 327]
residual rate of the cyclic peptide [3]: 28%

bFGF: basic fibroblast growth factor (R&D Systems, 3718-GMP), growth factor used as comparison
expression level of Nanog [4, 5]: did not change substantially
expression level of Oct4 [4, 5]: did not change substantially
expression level of Sox2 ([4]; cyclic peptide complex 10 nmol/L, bFGF 1 nmol/L, normalized to 1 nmol/L bFGF = 1, FIG. 4): changed

Reference: patent US20260008817A1, “CYCLIC PEPTIDE OR SALT THEREOF, AND USES THEREOF” (FUJIFILM Corporation, priority 2023, published 2026)
